The target in test [1] is T1, mouse IL-22 (mouse, UniProt Q9JJY9 34-179).
T1 construct: also called mIL-22; mIL22
T1 sequence (looked up): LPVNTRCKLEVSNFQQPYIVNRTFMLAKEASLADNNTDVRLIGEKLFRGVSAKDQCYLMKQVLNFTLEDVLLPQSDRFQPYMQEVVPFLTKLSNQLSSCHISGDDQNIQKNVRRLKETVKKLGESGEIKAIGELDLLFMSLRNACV
As to the kind of experiment: SPR (SierraSensors SPR-2), mIL-22 immobilized on chip, antibody injected, heterogeneous ligand model.
Method: (§1) The affinity of the 10 antibodies of Table 1 was measured by Surface Plasma Resonance (SPR) using a capture assay on a SPR-2 instrument (SierraSensiors, Hamburg, Germany). The antigens hIL-22 and mIL-22 were immobilized on chips. The running buffer for the assay contained 10 mM HEPES with a pH of 7.4, 500 mM NaCl, and 0.05% TWEEN® 20. […] The off-rate was measured for 6 minutes. Binding constants were calculated using the curve fitting software Analyzer2 (Sierra Sensors). Sensorgrams were analyzed with the instrument specific software and with BIAevaluation 4.1 software. The binding data were analyzed using the Langmuir 1:1 model (human IL-22) or a model for a heterogeneous ligand (mouse IL-220).

Test [2] addresses T2, human IL-22 (human, UniProt Q9GZX6 34-179).
T2 construct: also called hIL-22; hIL22
T2 sequence (looked up): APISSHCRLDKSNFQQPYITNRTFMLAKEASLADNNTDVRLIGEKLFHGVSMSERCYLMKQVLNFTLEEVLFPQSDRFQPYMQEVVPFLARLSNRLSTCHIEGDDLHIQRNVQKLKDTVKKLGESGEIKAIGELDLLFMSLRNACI
As to the kind of experiment: SPR (SierraSensors SPR-2), hIL-22 immobilized on chip, antibody injected, Langmuir 1:1 model.
Method: as §1

For another test, the target named is T3, human IL24 (human, UniProt Q13007 52-206, limits assumed).
T3 sequence (looked up): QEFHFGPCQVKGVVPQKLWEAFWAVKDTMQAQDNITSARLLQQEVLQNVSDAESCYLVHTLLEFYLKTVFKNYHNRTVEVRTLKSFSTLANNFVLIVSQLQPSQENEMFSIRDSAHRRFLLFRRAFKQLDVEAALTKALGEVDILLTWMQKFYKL
As to the kind of experiment: ELISA on coated antigen (1 ug/ml), anti-hIgG-HRP, OD450.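 Also: specificity check of antibodies applied at 100 ng/ml to wells bearing human or mouse IL-22, related cytokines or an unrelated control antigen.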 For orientation: An ELISA detects its analyte on a solid surface through an enzyme-linked reagent.

Another test deals with T4, human IL19 (human, UniProt Q9UHD0 25-177).
T4 sequence (looked up): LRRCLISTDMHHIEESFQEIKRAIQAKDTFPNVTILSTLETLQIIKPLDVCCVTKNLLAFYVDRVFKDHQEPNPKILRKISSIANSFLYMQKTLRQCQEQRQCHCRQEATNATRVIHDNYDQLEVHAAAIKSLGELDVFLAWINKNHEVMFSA
The description is as above.

A further test has as its target INF-λ1 (Homo sapiens (Human), UniProt Q8IU54 20-200). Described as above.
The next test deals with T5, INF-γ (Homo sapiens (Human), UniProt P01579 24-161).
T5 sequence: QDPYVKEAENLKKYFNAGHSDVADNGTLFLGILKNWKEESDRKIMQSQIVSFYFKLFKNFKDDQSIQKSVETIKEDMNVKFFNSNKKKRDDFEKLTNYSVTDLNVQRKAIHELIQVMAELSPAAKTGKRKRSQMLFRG
The test is described as above.

Another test has as its target T6, human IL20 (human, UniProt Q9NYY1 25-176).
T6 sequence (looked up): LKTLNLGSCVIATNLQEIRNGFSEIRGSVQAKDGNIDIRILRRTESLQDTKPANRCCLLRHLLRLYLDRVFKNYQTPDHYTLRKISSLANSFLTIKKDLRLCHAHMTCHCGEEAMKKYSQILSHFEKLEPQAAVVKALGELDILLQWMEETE
Described as above.

In a further test the target is T7, human IL26 (human, UniProt Q9NPH9 22-171, limits assumed).
T7 sequence (looked up): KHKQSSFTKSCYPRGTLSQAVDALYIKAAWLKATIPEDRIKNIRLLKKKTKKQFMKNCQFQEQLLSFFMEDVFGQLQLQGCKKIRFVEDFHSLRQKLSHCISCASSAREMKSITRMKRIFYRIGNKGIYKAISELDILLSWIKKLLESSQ
Described as above.

Test [3] concerns the target IL-22 (CXCL1 assay in HT29 cells). As to the kind of experiment: cell-based or functional assay.
The target in test [4] is T2, human IL-22. In words: affinity ELISA on hIL22, mAb concentration at 50% max signal.
Test [5] deals with T2, human IL-22. As to the kind of experiment: cell-based or functional assay.
The target of test [6] is IL-22 (CXCL1 assay in HT29 cells). In words: cell-based or functional assay. The source holds these as a separate data set.
The target of test [7] is T1, mouse IL-22. In words: cell-based or functional assay.
For test [8], the target named is T1, mouse IL-22. As to the kind of experiment: affinity ELISA on mIL22, mAb concentration at 50% max signal (second row of the same name).
Test [9] has as its target T2, human IL-22. As to the kind of experiment: affinity ELISA on hIL22, mAb concentration at 50% max signal (second row of the same name).
Test [10] deals with T1, mouse IL-22. As to the kind of experiment: affinity ELISA on mIL22, mAb concentration at 50% max signal.
Test [11] addresses T2, human IL-22. As to the kind of experiment: affinity ELISA and titration ELISA, CPE library screen.
From the text: (§2) Specifically, the CPE™ variants were screened by affinity ELISA for mouse IL-22 (mIL-22) binding affinity. […] The primary CPE™ hits were re-arrayed, re-transfected, and screened again by affinity ELISA and also by titration ELISA using both mIL-22 and human IL-22 (hIL-22) for antibodies that bind to both mIL-22 and hIL-22.
For test [12], the target named is T1, mouse IL-22. The description is as above.
From the text: as §2

Positions count from the first letter of the chain named. Numbers in names are those of the source.

Sequence of INF-λ1 (Q8IU54 20-200 limits assumed): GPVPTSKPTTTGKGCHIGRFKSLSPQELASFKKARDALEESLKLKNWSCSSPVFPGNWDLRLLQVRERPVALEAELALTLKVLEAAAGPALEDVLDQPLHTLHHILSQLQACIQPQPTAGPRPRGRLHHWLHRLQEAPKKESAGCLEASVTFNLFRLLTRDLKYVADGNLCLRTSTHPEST
Method for INF-γ: (§3) Plates were coated with 100 μl antigens at a concentration of 1 μg/ml. The plates were exposed to the antibodies at a concentration of 100 ng/ml. The bound antibodies were detected with anti-hIgG-HRP by the ELISA assay.
Method for INF-λ1: as §3
Method for human IL19: as §3
Method for human IL20: as §3
Method for human IL24: as §3
Method for human IL26: as §3

B1: CPE-LC-E049K (antibody, V domains shown)
VH: QVQLVQSGAEVKKPGASVKVSCKASGYIFTSYWIHWIRQPPGKGLEWIGRIYPGTGNTYYNEKFKGRVTISADKSISTAYLQWSSLKASDTAMYYCARSYDSSCAYWGQGTLVTVSS
VL: AIQLTQSPSSLSASVGDRVTITCSASSSVSYMHWYLQKPGQSPQLLIYKTSKLASGVPSRFSGSGSGTDFTFTISSLEAEDAATYYCQQWSSNPYITFGQGTKVEIKR
notes: One of the mutant antibodies of the CPE library made from hum10 (CDR positions substituted); built here as hum10 with E49K in the light chain, read from its name
What is called Kd is the free concentration of one partner at which half of the binding sites on the other are occupied at equilibrium, for simple one-to-one binding. The low end stands for higher affinity, the high end for lower affinity. What is called koff is the rate constant with which the complex falls apart. Low readings indicate a long-lived complex, high ones a short-lived complex. B1: the Kd was determined as 40.2 nM with mouse IL-22 [1] and 0.156 nM in the test with human IL-22 [2]. In addition, the values for the koff with mouse IL-22 [1] and with human IL-22 [2] were 0.00137 s⁻¹ and 5.93e-05 s⁻¹, respectively. For the same molecule, the binding result with human IL24, with human IL19, with INF-λ1, with INF-γ, with human IL20 and in the test with human IL26 was “no binding (tested: 100 ng/ml)” throughout. Further, in [3], the “IC50 (parameter C of the log-logit fit y=(A-D)/(1+(x/C)^B)+D) of inhibition of IL-22-induced CXCL1 production in HT29 cells” value stood at 124 ng/ml.

B2: CPS-09 (antibody, V domains shown)
VH: B1 VH with T30R, N57R, S102Y, C104V
VL: B1 VL with K49E, S51R
notes: Mutant of humanized hum10, whole antibody expressed in CHO cells; also called CPS-hit-09; CSP09
As a reminder, the EC50 is the concentration needed to bring the measured effect to its halfway point. Read a high EC50 as lower potency in that assay. On to B2, for which the Kd in the test with mouse IL-22 [1] was 3.96 nM; with human IL-22 [2] it was 0.0253 nM. The koff came out at 0.000768 s⁻¹ with mouse IL-22 [1] and 2.18e-05 s⁻¹ with human IL-22 [2]. In addition, the EC50 came to 0.081 nM with human IL-22 [4], 0.034 nM in the test with mouse IL-22 [8], 0.074 nM with human IL-22 [9] and 0.141 nM in the test with mouse IL-22 [10]. Also, in test [3], the “IC50 (parameter C of the log-logit fit y=(A-D)/(1+(x/C)^B)+D) of inhibition of IL-22-induced CXCL1 production in HT29 cells” value was 61.6 ng/ml. Moreover, the “STAT3 Phosphorylation; hIL22 % inhibition mAb [0.73 nM]” value in the test with human IL-22 [5] stood at 12.1%. For the same molecule, in test [6], the “CXCL-1 Assay (IC50 [pM]) double data points 02122015” value is 204 pM. Besides, in test [6], the “CXCL-1 Assay (IC50 [pM]) single data points 02052015” value worked out at 411 pM. Also, in the test with mouse IL-22 [7], the “Acute Phase response 5 µg mIL22 and 5 µg mAb (% signal reduction), molar ratio mIL22: mAb = 4.5:1 (serum amyloid in mice)” value was determined as 73%. In the test with mouse IL-22 [7], the “Acute Phase response 5 µg mIL22 and 50 µg mAb (% signal reduction), molar ratio of mIL22:mAb = 1:2.2 (serum amyloid in mice)” value was found to be 42%.

B3: CPS-01 (antibody, V domains shown)
VH: B1 VH with T30R, N57R, C104V
VL: B1 VL
notes: Mutant of humanized hum10, whole antibody expressed in CHO cells; also called LC-03 / HC-08
Regarding B3, the binding result in the test with human IL-22 [11] and with mouse IL-22 [12] was “binds” throughout.

B4: CPS-10 (antibody, V domains shown)
VH: B1 VH with T30R, N57R, S102Y, C104V
VL: B1 VL with K49E, A54L
notes: Mutant of humanized hum10, whole antibody expressed in CHO cells; also called LC-05 / HC-25
Take B4: the binding result with human IL-22 [11] and with mouse IL-22 [12] was “binds” each time.

B5: CPS-04 (antibody, V domains shown)
VH: B1 VH with T30R, E62R, C104V
VL: B1 VL with A54L
notes: Mutant of humanized hum10, whole antibody expressed in CHO cells; also called LC-07 / HC-09
B5: the Kd with mouse IL-22 [1] amounted to 4.23 nM; with human IL-22 [2], 0.0292 nM. Also, the koff in the test with mouse IL-22 [1] was determined as 0.00118 s⁻¹; with human IL-22 [2] it was 3.74e-05 s⁻¹. Moreover, the binding result with human IL24, in the test with human IL19, with INF-λ1, with INF-γ, with human IL20 and with human IL26 was “no binding (tested: 100 ng/ml)” throughout. The “IC50 (parameter C of the log-logit fit y=(A-D)/(1+(x/C)^B)+D) of inhibition of IL-22-induced CXCL1 production in HT29 cells” value in test [3] amounted to 51 ng/ml.

B6: CPS-17 (antibody, V domains shown)
VH: B1 VH with T30R, E62R, D101M, S102Y, C104V
VL: B1 VL with K49E, S51R
notes: Mutant of humanized hum10, whole antibody expressed in CHO cells; also called LC-04 / HC-49
As to B6, the results for the Kd with mouse IL-22 [1] and with human IL-22 [2] were 6.27 nM and 0.0522 nM, respectively. Moreover, the koff with mouse IL-22 [1] worked out at 0.00158 s⁻¹; in the test with human IL-22 [2], 6.94e-05 s⁻¹. In addition, the binding result with human IL24, with human IL19, with INF-λ1, with INF-γ, in the test with human IL20 and with human IL26 was “no binding (tested: 100 ng/ml)” in each case. Also, in [3], the “IC50 (parameter C of the log-logit fit y=(A-D)/(1+(x/C)^B)+D) of inhibition of IL-22-induced CXCL1 production in HT29 cells” value is 155 ng/ml.

B7: CPS-20 (antibody, V domains shown)
VH: B1 VH with T30R, E62R, D101M, C104V, A105G
VL: B1 VL with Y31K, K49E, S51R
notes: Mutant of humanized hum10, whole antibody expressed in CHO cells; also called LC-11 / HC-50
For the molecule B7, the binding result with human IL-22 [11] and in the test with mouse IL-22 [12] was “binds” each time.

B8: CPS-16 (antibody, V domains shown)
VH: B1 VH with T30R, E62R, D101M, S102Y, C104V
VL: B1 VL
notes: Mutant of humanized hum10, whole antibody expressed in CHO cells; also called LC-03 / HC-49
In the case of B8, the binding result in the test with human IL-22 [11] and with mouse IL-22 [12] was “binds” in each case.

B9: CPS-11 (antibody, V domains shown)
VH: B1 VH with T30R, N57R, S102Y, C104V
VL: B1 VL with S51R
notes: Mutant of humanized hum10, whole antibody expressed in CHO cells; also called LC-06 / HC-25
As to B9, the binding result with human IL-22 [11] and in the test with mouse IL-22 [12] was “binds” throughout.

B10: CPS-14 (antibody, V domains shown)
VH: B1 VH with N57R, E62R, S102Y, C104V
VL: B1 VL with K49E, S51R
notes: Mutant of humanized hum10, whole antibody expressed in CHO cells; also called LC-04 / HC-31
On to B10, for which the Kd was determined as 4.8 nM with mouse IL-22 [1] and 0.0314 nM in the test with human IL-22 [2]. For the same molecule, the koff with mouse IL-22 [1] is 0.00123 s⁻¹; in the test with human IL-22 [2], 3.55e-05 s⁻¹. Further, the binding result with human IL24, with human IL19, with INF-λ1, with INF-γ, with human IL20 and with human IL26 was “no binding (tested: 100 ng/ml)” each time. For the same molecule, the “IC50 (parameter C of the log-logit fit y=(A-D)/(1+(x/C)^B)+D) of inhibition of IL-22-induced CXCL1 production in HT29 cells” value in test [3] came out at 44.2 ng/ml.

The values are drawn from patent publication US20210230263A1 (BIOATLA, published 2021).
